Laboratory results reported in US20230287082A1 (published 2023).
Positions count from the first letter of the chain named.

B1: ΔB7-H6_S3#24-SEED-PGLALA (bispecific antibody, part only; not given: SEED Fc chains and hu225 Fab, part only)
chain, part: DLKVEMMAGGTQITPLNDNVTIFCNIFYSQPLNITIMGITWFWKSLTFDKEVKVFEFYGDHQEAFRPGAIVSPWRLKSGDASLRLPGIQLEEAGEYRCEVVVTPYKAQGTVQLEVVASPAS
B2: ΔB7-H6_S3#8-SEED-PGLALA (bispecific antibody, part only; not given: SEED Fc chains and hu225 EGFR Fab, part only)
chain, part: B1 chain, part with I36H, Y58W, V101I, Y105L
B3: ΔB7-H6_S3#1-SEED-PGLALA (bispecific antibody, part only; not given: SEED Fc chains and hu225 EGFR Fab, part only)
chain, part: B1 chain, part with I36T, Y58W
B4: ΔB7-H6_S3#6-SEED-PGLALA (bispecific antibody, part only; not given: SEED Fc chains and hu225 Fab, part only)
chain, part: B1 chain, part with I36H, Y58W
B5: ΔB7-H6_S3#21-SEED-PGLALA (bispecific antibody, part only; not given: SEED Fc chains and hu225 Fab, part only)
chain, part: B1 chain, part with I36L, Y58W
B6: ΔB7-H6_S3#7-SEED-PGLALA (bispecific antibody, part only; not given: SEED Fc chains and hu225 Fab, part only)
chain, part: B1 chain, part with I36H
B7: ΔB7-H6_S3#23-SEED-PGLALA (bispecific antibody, part only; not given: SEED Fc chains and hu225 Fab, part only)
chain, part: B1 chain, part with I36E
B8: ΔB7-H6_S3#9-SEED-PGLALA (bispecific antibody, part only; not given: SEED Fc chains and hu225 EGFR Fab, part only)
chain, part: B1 chain, part with I36H, Y58F
B9: ΔB7-H6_S3#17-SEED-PGLALA (bispecific antibody, part only; not given: SEED Fc chains and hu225 EGFR Fab, part only)
chain, part: B1 chain, part with I36S, V101F, Y105L
B10: ΔB7-H6_S2#7-SEED-PGLALA (bispecific antibody, part only; not given: SEED Fc chains and hu225 Fab, part only)
chain, part: B1 chain, part with I36S, V101I, A117T
B11: ΔB7-H6_S3#26-SEED-PGLALA (bispecific antibody, part only; not given: SEED Fc chains and hu225 Fab, part only)
chain, part: B1 chain, part with I36T, Y58W, G59D
B12: ΔB7-H6_S3#29-SEED-PGLALA (bispecific antibody, part only; not given: SEED Fc chains and hu225 EGFR Fab, part only)
chain, part: B1 chain, part with I36V, Y58W, V101I
B13: ΔB7-H6_S3#3-SEED-PGLALA (bispecific antibody, part only; not given: SEED Fc chains and hu225 Fab, part only)
chain, part: B1 chain, part with I36H, Y58F, V101F
B14: ΔB7-H6_S2#2-SEED-PGLALA (bispecific antibody, part only; not given: SEED Fc chains and hu225 Fab, part only)
chain, part: B1 chain, part with I36S, Y58W, G59D
B15: ΔB7-H6_S3#11-SEED-PGLALA (bispecific antibody, part only; not given: SEED Fc chains and hu225 Fab, part only)
chain, part: B1 chain, part with I36L, Y58W, V101I, Y105F
B16: ΔB7-H6_S3#30-SEED-PGLALA (bispecific antibody, part only; not given: SEED Fc chains and hu225 Fab, part only)
chain, part: B1 chain, part with I36E, Y58W, V101I, Y105L
B17: ΔB7-H6_S3#12-SEED-PGLALA (bispecific antibody, part only; not given: SEED Fc chains and hu225 Fab, part only)
chain, part: B1 chain, part with I36E, Y58F
B18: ΔB7-H6_S3#22-SEED-PGLALA (bispecific antibody, part only; not given: SEED Fc chains and hu225 Fab, part only)
chain, part: B1 chain, part with I36E, Y58W
B19: ΔB7-H6_S3#19-SEED-PGLALA (bispecific antibody, part only; not given: SEED Fc chains and hu225 Fab, part only)
chain, part: B1 chain, part with I36Q, Y58W
B20: ΔB7-H6_S3#10-SEED-PGLALA (bispecific antibody, part only; not given: SEED Fc chains and hu225 Fab, part only)
chain, part: B1 chain, part with I36S, V101F
B21: ΔB7-H6_S3#5-SEED-PGLALA (bispecific antibody, part only; not given: SEED Fc chains and hu225 Fab, part only)
chain, part: B1 chain, part with I36V, Y58W
B22: ΔB7-H6_S2#1-SEED-PGLALA (bispecific antibody, part only; not given: SEED Fc chains and hu225 EGFR Fab, part only)
chain, part: B1 chain, part with I36S
B23: ΔB7-H6_S3#28-SEED-PGLALA (bispecific antibody, part only; not given: SEED Fc chains and hu225 EGFR Fab, part only)
chain, part: B1 chain, part with I36H, Y58W, Y105L
B24: ΔB7-H6_S2#3-SEED-PGLALA (bispecific antibody, part only; not given: SEED Fc chains and hu225 Fab, part only)
chain, part: B1 chain, part with I36T, Y58W, Y105L

Target: NKp30 on human NK cells (human) (UniProt O14931)
Test: cell-based or functional assay

Sequence of NKp30 on human NK cells (human) (O14931 19-201): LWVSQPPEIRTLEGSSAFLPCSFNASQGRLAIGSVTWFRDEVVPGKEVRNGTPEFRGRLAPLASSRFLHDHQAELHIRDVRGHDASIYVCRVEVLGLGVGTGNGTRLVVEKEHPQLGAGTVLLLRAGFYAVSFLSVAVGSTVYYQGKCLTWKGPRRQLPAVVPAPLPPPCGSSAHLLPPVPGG

Row | Binder | A431 EC50 with NK cells (pM) | A431 EC50 with PBMC (pM) | A549 EC50 with NK cells (pM) | A549 EC50 with PBMC (pM) | EC50 (pM), A431 lysis with PBMC [pM] | EC50 improvement compared to ΔB7-H6 wt [fold]
1 | B1 | 3.55 | 39.7 | 35.2 | 108 | 9.3 | 93
2 | B2 | – | – | – | – | 43.7 | 20
3 | B3 | – | – | – | – | 61.1 | 14
4 | B4 | – | – | – | – | 40.8 | 21
5 | B5 | – | – | – | – | 36.1 | 24
6 | B6 | – | – | – | – | 45.4 | 19
7 | B7 | – | – | – | – | 78 | 11
8 | B8 | – | – | – | – | 64 | 14
9 | B9 | – | – | – | – | 427 | 2
10 | B10 | – | – | – | – | 170 | 5
11 | B11 | – | – | – | – | 22.7 | 38
12 | B12 | – | 33.6 | – | 172 | 7.6 | 114
13 | B13 | – | – | – | – | 110 | 8
14 | B14 | – | – | – | – | 169 | 5
15 | B15 | – | – | – | – | 65.8 | 13
16 | B16 | – | – | – | – | 176 | 5
17 | B17 | – | – | – | – | 165 | 5
18 | B18 | – | – | – | – | 106 | 8
19 | B19 | – | – | – | – | 240 | 4
20 | B20 | – | – | – | – | 85 | 10
21 | B21 | – | – | – | – | 54.7 | 16
22 | B22 | – | – | – | – | 140 | 6
23 | B23 | – | – | – | – | 114 | 8
24 | B24 | – | – | – | – | 175 | 5

Target: human NKp30 (human) (UniProt O14931)
Test: BLI, immunoligand on anti-hFc tip

Sequence of human NKp30 (human) (O14931 19-135 limits assumed): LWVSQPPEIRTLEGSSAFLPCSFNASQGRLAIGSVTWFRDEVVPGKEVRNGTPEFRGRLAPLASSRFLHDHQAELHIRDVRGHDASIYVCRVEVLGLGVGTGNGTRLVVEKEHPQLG

Row | Binder | Kd [nM] | koff [s⁻¹] | kon [M⁻¹ s⁻¹]
25 | B1 | 14.9 | 0.0104 | 702000
26 | B2 | 80.7 | 0.0455 | 564000
27 | B3 | 39.1 | 0.0295 | 754000
28 | B4 | 33.1 | 0.0244 | 737000
29 | B5 | 17.9 | 0.0211 | 1.18e+06
30 | B6 | 110 | 0.0525 | 478000
31 | B7 | 110 | 0.0525 | 479000
32 | B8 | 57.8 | 0.056 | 970000
33 | B9 | 59.1 | 0.0573 | 969000
34 | B10 | 191 | 0.0964 | 504000
35 | B11 | 113 | 0.0464 | 409000
36 | B12 | 24.8 | 0.0175 | 705000
37 | B13 | 104 | 0.109 | 1.05e+06
38 | B14 | 217 | 0.0737 | 340000
39 | B15 | 39.1 | 0.0432 | 1.11e+06
40 | B16 | 125 | 0.0776 | 622000
41 | B17 | 129 | 0.0865 | 671000
42 | B18 | 95.2 | 0.0441 | 463000
43 | B19 | 146 | 0.0981 | 673000
44 | B20 | 145 | 0.0998 | 689000
45 | B21 | 22.5 | 0.018 | 799000
46 | B22 | 205 | 0.078 | 380000
47 | B23 | 443 | 0.136 | 306000
48 | B24 | 194 | 0.106 | 546000

Target: human NKp30 (human) (UniProt O14931)
Test: BLI, ratio to ΔB7-H6_wt

Row | Binder | KD improvement compared to ΔB7-H6 wt [fold] | x-fold KD improvement [fold] | x-fold Koff improvement [fold]
49 | B1 | 27.4 | 27.5 | 16.1
50 | B2 | 5.1 | 5.1 | 3.7
51 | B3 | 10.5 | 10.5 | 5.7
52 | B4 | 12.4 | 12.4 | 6.9
53 | B5 | 22.8 | 22.8 | 8
54 | B6 | 3.7 | 3.7 | 3.2
55 | B7 | 3.7 | 3.7 | 3.2
56 | B8 | 7.1 | 7.1 | 3
57 | B9 | 6.9 | 6.9 | 2.9
58 | B10 | 2.1 | 2.1 | 1.7
59 | B11 | 3.6 | 3.6 | 3.6
60 | B12 | 16.5 | 16.5 | 9.6
61 | B13 | 3.9 | 3.9 | 1.5
62 | B14 | 1.9 | 1.9 | 2.3
63 | B15 | 10.5 | 10.5 | 3.9
64 | B16 | 3.3 | 3.3 | 2.2
65 | B17 | 3.2 | 3.2 | 1.9
66 | B18 | 4.3 | 4.3 | 3.8
67 | B19 | 2.8 | 2.8 | 1.7
68 | B20 | 2.8 | 2.8 | 1.7
69 | B21 | 18.2 | 18.2 | 9.3
70 | B22 | 2 | 2 | 2.2
71 | B23 | 0.9 | 0.9 | 1.2
72 | B24 | 2.1 | 2.1 | 1.6
